The data set relates to T1, rVapB47 (rRv3407) (Mycobacterium bovis BCG Moreau), ORF:ad596061.
T1 sequence: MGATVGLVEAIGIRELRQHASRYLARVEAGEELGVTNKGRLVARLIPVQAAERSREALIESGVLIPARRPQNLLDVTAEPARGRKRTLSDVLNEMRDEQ
Briefly: EMSA.

These results are taken from PMC10453824.

For “TCGACGTGTACGGGCAGGCTAGCCGGGTGATCAGCGGGGCGCCGATGGAGATCGCTGGCTGATCAACCAGTAAGCGCAACGCAATTATGTAGCACCATGCGTGCTACCGTTGGGCTTGTGGA (double strand) [07promF-R2 (122 bp)]”, the binding entry was “binds”. Take “GGTGCTACATAATTGCGTTGCGCTTACTGGTTGATCAGCCAGCGATCTCCATCGGCGCCCCGCTGATCACCCGGCTAGCCTGCCCGTACACGTCGA (double strand) [07promF-R1 (96 bp)]”: the binding entry is on record as “no binding”.
